The source of these data is patent publication US20040146882A1, “Human acid sensing ion channel 2b (hASIC2b), process for producing the same, and its use” (priority 2002, published 2004).

The target in one test is T1, ASIC1 (Rattus norvegicus, UniProt P55926).
T1 sequence (P55926 1-526): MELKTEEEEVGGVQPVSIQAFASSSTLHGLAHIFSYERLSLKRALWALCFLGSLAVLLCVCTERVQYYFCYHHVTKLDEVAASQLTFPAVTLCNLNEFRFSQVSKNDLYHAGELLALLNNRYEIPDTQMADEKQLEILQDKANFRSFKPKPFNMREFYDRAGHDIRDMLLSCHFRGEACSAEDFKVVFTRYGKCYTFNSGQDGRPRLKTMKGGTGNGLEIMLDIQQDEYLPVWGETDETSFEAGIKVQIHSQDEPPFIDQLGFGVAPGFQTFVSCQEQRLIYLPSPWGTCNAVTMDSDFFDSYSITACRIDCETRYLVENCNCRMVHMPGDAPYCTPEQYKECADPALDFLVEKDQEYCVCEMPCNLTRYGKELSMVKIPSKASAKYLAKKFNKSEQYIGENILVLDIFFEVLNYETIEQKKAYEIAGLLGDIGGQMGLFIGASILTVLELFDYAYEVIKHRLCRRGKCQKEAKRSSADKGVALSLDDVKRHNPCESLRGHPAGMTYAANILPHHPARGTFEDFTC
Conditions: cited from earlier work.

The target in the next test is T2, ASIC2a (Rattus norvegicus, UniProt Q62962).
T2 sequence (Q62962 1-512): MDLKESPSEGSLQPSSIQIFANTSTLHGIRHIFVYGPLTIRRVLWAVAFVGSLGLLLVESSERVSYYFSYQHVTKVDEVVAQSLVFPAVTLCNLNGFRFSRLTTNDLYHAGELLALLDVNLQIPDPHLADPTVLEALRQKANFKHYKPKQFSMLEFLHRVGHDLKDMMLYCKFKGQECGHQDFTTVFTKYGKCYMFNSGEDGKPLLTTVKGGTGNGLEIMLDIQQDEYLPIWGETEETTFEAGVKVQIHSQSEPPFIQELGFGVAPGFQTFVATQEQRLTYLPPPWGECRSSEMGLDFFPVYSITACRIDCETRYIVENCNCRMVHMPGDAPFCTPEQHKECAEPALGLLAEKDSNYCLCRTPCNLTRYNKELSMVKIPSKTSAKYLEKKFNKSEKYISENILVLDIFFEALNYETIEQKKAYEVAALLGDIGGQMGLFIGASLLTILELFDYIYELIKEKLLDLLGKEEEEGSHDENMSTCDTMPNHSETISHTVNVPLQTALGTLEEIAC
Conditions: cited from earlier work.

The target in test [1] is human Acid Sensing Ion Channel 2a (hASIC2a) (human) (UniProt Q16515). The test can be described thus: cell-based or functional assay.
The next test relates to CHO-K1 cells. The test can be described thus: whole-cell patch clamp recording of acid-induced currents in transfected CHO-K1 cells. The test is classed as cell-based, Chinese Hamster. The procedure:
The mammalian expression vectors for hASIC2b and hASIC2a were constructed using appropriate expression vectors such as pcDNA3.1 (Clonetech) according to conventional molecular biological methods. Chinese Hamster Ovary (CHO)-K1 cells were seeded on a 35 mm dish in diameter at a density of 20,000 cells, and then transfected with various combinations of ASIC expression vectors with FuGENE6 transfection reagent (Roche) according to the manufacturer's instructions as follows: the hAISC2b expression vector alone (1 μg) for homomeric hASIC2b expression, hASIC2a and green fluorescent protein (GFP) expression vectors (1:2 molar ratio in a total of 1 μg) for hASIC2a expression, and hASIC2b/hASIC2a (1:2 molar ratio in a total of 1 μg) for heteromeric expression. Cells were used for electrophysiological measurements 2 days after the transfection. Successfully transfected cells were recognized by GFP emission signal. Ion currents were recorded using whole-cell patch clamp technique. Recording was made with an Axopatch 200B amplifier (Axon Instruments). Currents were filtered at 5 kHz and digitized by using Digidata 1321A interface. Data were interpolated using Origin6.0 (version 6.0, Microcal). Pipettes were pulled from borosilicate glass and had pipette resistances 1-4MΩ when filled with the intercellular solution. All recordings were made at room temperature (23±2° C.). […]
(In patch-clamp work, channel activity is measured electrically.)

As for `N=C(N)NC(=O)c1nc(Cl)c(N)nc1N` [amiloride], at ASIC1, the “block of ASIC1” value was “blocked” and the “sensitivity of cation transport by ASIC1a” value is on record as “sensitive”. The “sensitivity of cation transport by ASIC2a” value on ASIC2a is reported as “sensitive”.

As for `CCN(c1nc(N)c(C(=O)NC(=N)N)nc1Cl)C(C)C` [ethylisopropylamiloride], the “block of ASIC1” value on ASIC1 is listed as “blocked”.

B1: human Acid Sensing Ion Channel 2b (hASIC2b) (protein)
chain: MSRIGGAGLPAAALTGPGRFRMAREEPAPAALAAAGQPGGGRGGERALQGPGVARRGRPSLSRAKLHGLRHMCAGRTAAGGSFQRRALWVLAFCTSFGLLLSWSSNRLLYWLSFPSHTRVHREWSRQLPFPAVTVCNNNPLRFPRLSKGDLYYAGHWLGLLLPNRTARPLVSELLRGDEPRRQWFRKLADFRLFLPPRHFEGISAAFMDRLGHQLEDMLLSCKYRGELCGPHNFSSVFTKYGKCYMFNSGEDGKPLLTTVKGGTGNGLEIMLDIQQDEYLPIWGETEETTFEAGVKVQIHSQSEPPFIQELGFGVAPGFQTFVATQEQRLTYLPPPWGECRSSEMGLDFFPVYSITACRIDCETRYIVENCNCRMVHMPGDAPFCTPEQHKECAEPALGLLAEKDSNYCLCRTPCNLTRYNKELSMVKIPSKTSAKYLEKKFNKSEKYISENILVLDIFFEALNYETIEQKKAYEVAALLGDIGGQMGLFIGASILTILELFDYIYELIKEKLLDLLGKEEDEGSHDENVSTCDTMPNHSETISHTVNVPLQTTLGTLEEIAC
With B1, in test [1], the pH50 value for activation (hASIC2a/hASIC2b co-expressing CHO-K1 cells) was found to be 3.43 pH, the peak current density at pH2.0 (hASIC2a/hASIC2b CHO-K1 transformants) was determined as 113 pA/pF, the peak current density at pH3.0 (hASIC2a/hASIC2b CHO-K1 transformants) stood at 88.9 pA/pF and the peak current density at pH4.0 (hASIC2a/hASIC2b CHO-K1 transformants) worked out at 21 pA/pF. Further, the acid-induced inward currents entry with CHO-K1 cells (5 sec application of low pH solution, pH 2.0-4.0, FIG. 5) is “inactive”. The “effect on acid-induced ion currents of hASIC2a” value in the test on CHO-K1 cells (co-expression with hASIC2a) is recorded as “inhibitory effect”.
